Test results from the supplement of paper PMC7877785.
± gives the uncertainty stated by the source.

Experiment: self-splicing fitness, log relative to wild type (ln ratio); higher = more splicing; Tetrahymena group I intron in knt gene, E. coli kanamycin selection, DiMSum; sequences stand for … in CUCUCU…GGAGGGAAAAGUUAUCAGGCAUGCACCUGGUAGCUAGUCUUUAAACCAAUAGAUUGCAUCGGUUUAAAAGGCAAGACCGUCAAAUUGCGGGAAAGGGGUCAACAGCCGUUCAGUACCAAGUCUCAGGGGAAACUUUGAGAUGGCCUUGCAAAGGGUAUGGUAAUAAGCUGACGGACAUGGUCCUAACCACGCAGCCAAGUCCUAAGUCAACAGAUCUUCUGUUGAUAUGGAUGCAGUUCACAGACUAAAUGUCGGUCGGGGAAGAUGUAUUCUUCUCAUAAGAUAUAGUCGGACCUCUCCUUAAUGGGAGCUAGCGGAUGAAGUGAUGCAACACUGGAGCCGCUGGGAACUAAUUUGUAUGCGAAAGUAUAUUGAUUAGUUUUGGAGUACUCGUGGUCG
Summary of the method: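 Six replicate transformations of E. coli BL21(DE3) with a pET-22b(+) library were grown overnight at 37°C or 30°C. The library randomised all eight P1ex-region intron nucleotides, the intron lying in the knt kanamycin-resistance gene, and plates were LB agar with or without 25 μg/mL kanamycin plus 100 μg/mL carbenicillin, 50 μM IPTG and 0.2% rhamnose. Pooled colonies were amplicon-sequenced on an Illumina HiSeq 2500, and fitness is the DiMSum error-weighted combination of wild-type-normalised replicate fold changes, kanamycin versus none.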

Row | Sequence | self-splicing fitness (ln) (30 °C) | self-splicing fitness (ln) (37 °C)
1 | GUGAAGCAAUAUUACGCGUC | -2.19 ± 0.19 | -0.692 ± 0.16
2 | GGAAAGCAAUAUUACGGGGU | -3.1 ± 0.22 | -3 ± 0.28
3 | AAUGAGCAAUAUUACGGAUU | -2.38 ± 0.15 | -1.04 ± 0.16
4 | AAAUAGCAAUAUUACGUGCU | -0.869 ± 0.11 | -1.22 ± 0.15
5 | GUUUAGCAAUAUUACGGCUA | -1.45 ± 0.33 | -1.68 ± 0.31
6 | CUAGAGCAAUAUUACGACAU | -3.918 ± 0.03 | -2.71 ± 0.043
7 | GGCGAGCAAUAUUACGGGGU | -3.47 ± 0.25 | 
8 | CACUAGCAAUAUUACGUACC | -3.22 ± 0.18 | -2.55 ± 0.24
9 | UUCGAGCAAUAUUACGGAGG | -4.27 ± 0.34 | -1.47 ± 0.24
10 | CAUUAGCAAUAUUACGGUAC | -1.9 ± 0.16 | -2.07 ± 0.46
11 | GCAUAGCAAUAUUACGAGGU | -3.73 ± 0.4 | -2.07 ± 0.4
12 | AGUCAGCAAUAUUACGCCUA | -0.754 ± 0.12 | 0.18 ± 0.15
13 | GGGUAGCAAUAUUACGUUAG |  | -1.78 ± 0.43
14 | AAACAGCAAUAUUACGCGUC | -2.3 ± 0.095 | -1.78 ± 0.12
15 | GUAUAGCAAUAUUACGUAUG | -3.06 ± 0.15 | -1.93 ± 0.15
16 | AUUUAGCAAUAUUACGCGAU | -3.22 ± 0.33 | -2.49 ± 0.48
17 | CGCGAGCAAUAUUACGCGCA |  | -2.91 ± 0.2
18 | AUUAAGCAAUAUUACGAGUU | -2.42 ± 0.17 | -1.27 ± 0.22
19 | UUCGAGCAAUAUUACGUUUC | -3.44 ± 0.35 | -2.37 ± 0.35
20 | GGCGAGCAAUAUUACGUUUU | -1.35 ± 0.094 | -1.35 ± 0.14
21 | ACCAAGCAAUAUUACGUUAC | -3.66 ± 0.2 | -1.76 ± 0.14
22 | GCACAGCAAUAUUACGCACC | -0.769 ± 0.13 | 0.129 ± 0.15
23 | UACAAGCAAUAUUACGAAGC | -3.39 ± 0.23 | -2.74 ± 0.26
24 | AACUAGCAAUAUUACGCUGU | -3.41 ± 0.16 | -3.84 ± 0.32
25 | AAUGAGCAAUAUUACGUUUU | -3.53 ± 0.16 | -2.15 ± 0.17
26 | GCCCAGCAAUAUUACGAAUC | -0.771 ± 0.083 | -0.457 ± 0.086

Row | Sequence | self-splicing fitness (ln) (30 °C) | self-splicing fitness (ln) (37 °C)
27 | GGCCAGCAAUAUUACGGCCC | -2.83 ± 0.42 | 
28 | AAGUAGCAAUAUUACGAUCG | -1.43 ± 0.1 | -0.453 ± 0.15
29 | AGGUAGCAAUAUUACGGAUU | -1.553 ± 0.014 | -0.618 ± 0.033
30 | UAUCAGCAAUAUUACGACGG | -0.775 ± 0.098 | 0.242 ± 0.13
31 | AAUAAGCAAUAUUACGAAUC | -2.45 ± 0.21 | -0.866 ± 0.23
32 | CGGAAGCAAUAUUACGACUG | -2.02 ± 0.28 | -1.12 ± 0.23
33 | CGUCAGCAAUAUUACGUUGA | -3.04 ± 0.26 | -2.26 ± 0.19
34 | AGAUAGCAAUAUUACGUGUC | -3.36 ± 0.28 | -3.11 ± 0.27
35 | GAGAAGCAAUAUUACGCGCC | -1.88 ± 0.33 | -0.596 ± 0.23
36 | CCACAGCAAUAUUACGACCA | -3.99 ± 0.36 | -1.28 ± 0.2
37 | GCCAAGCAAUAUUACGUUUG | -3.38 ± 0.16 | -2.61 ± 0.21
38 | GGAAAGCAAUAUUACGGCCU | -1.71 ± 0.15 | -0.809 ± 0.21
39 | GUCUAGCAAUAUUACGCCCA | -0.688 ± 0.26 | -0.356 ± 0.26
40 | CCGCAGCAAUAUUACGGCGC |  | -0.961 ± 0.22
41 | CUCUAGCAAUAUUACGAUCC | -2.43 ± 0.31 | -2.11 ± 0.3
42 | GUUAAGCAAUAUUACGAUCA | -0.949 ± 0.23 | -0.245 ± 0.2
43 | UACCAGCAAUAUUACGGAGC | -3 ± 0.15 | -3.22 ± 0.27
44 | GAGUAGCAAUAUUACGGCUC | -2.59 ± 0.37 | -2.51 ± 0.48
45 | AAGAAGCAAUAUUACGCCUU | -3.53 ± 0.4 | -2.17 ± 0.33
46 | GUCGAGCAAUAUUACGAUCG | -3.65 ± 0.23 | -1.38 ± 0.18
47 | CCGCAGCAAUAUUACGAAGU | -3.34 ± 0.31 | -2.5 ± 0.33
48 | CCCCAGCAAUAUUACGAGAU | -3.78 ± 0.17 | -2.3 ± 0.2
49 | CACCAGCAAUAUUACGAUUC | -2.18 ± 0.094 | -2.32 ± 0.18
50 | ACUGAGCAAUAUUACGGCUC |  | -1.73 ± 0.48
51 | GAAUAGCAAUAUUACGACUU | 0.269 ± 0.073 | 0.548 ± 0.092
52 | ACGUAGCAAUAUUACGGGGA | -1.93 ± 0.1 | -1.83 ± 0.099

Row | Sequence | self-splicing fitness (ln) (30 °C) | self-splicing fitness (ln) (37 °C)
53 | GCUGAGCAAUAUUACGACAC | -1.67 ± 0.14 | -1.1 ± 0.18
54 | GAUCAGCAAUAUUACGACGC | -0.169 ± 0.077 | 0.198 ± 0.09
55 | UCUUAGCAAUAUUACGCGUG | -3.05 ± 0.18 | -2.21 ± 0.15
56 | AACCAGCAAUAUUACGUUUC | -4.08 ± 0.17 | -2.92 ± 0.21
57 | UUGUAGCAAUAUUACGACAA | -0.0967 ± 0.15 | -0.283 ± 0.15
58 | UGUGAGCAAUAUUACGUCAG | -1.88 ± 0.3 | -1.02 ± 0.24
59 | AUUGAGCAAUAUUACGUGAA | -2.5 ± 0.15 | -1.74 ± 0.27
60 | AGAAAGCAAUAUUACGGCGG | -0.593 ± 0.1 | -0.586 ± 0.14
61 | GUCCAGCAAUAUUACGUAAC | -0.291 ± 0.073 | -0.649 ± 0.095
62 | AGAUAGCAAUAUUACGUAUC | -2.64 ± 0.17 | -1.71 ± 0.18
63 | CACAAGCAAUAUUACGGCAA | -2.21 ± 0.1 | -1.55 ± 0.089
64 | CGAGAGCAAUAUUACGUUGU |  | -1.57 ± 0.19
65 | UGAGAGCAAUAUUACGCUAG | -3.66 ± 0.47 | 
66 | CAUUAGCAAUAUUACGGAGG | -0.36 ± 0.11 | -0.878 ± 0.16
67 | CGUAAGCAAUAUUACGACUA | -2.29 ± 0.27 | -1.96 ± 0.24
68 | AAUGAGCAAUAUUACGCGCC | -3.19 ± 0.28 | -2.73 ± 0.44
69 | UUGAAGCAAUAUUACGGCAG | 0.393 ± 0.078 | -0.0313 ± 0.092
70 | ACCAAGCAAUAUUACGUAAU | -2.74 ± 0.098 | -0.681 ± 0.078
71 | GAGUAGCAAUAUUACGCACC | -0.317 ± 0.25 | -1.31 ± 0.24
72 | GCCGAGCAAUAUUACGGAUG | -1.38 ± 0.06 | -0.937 ± 0.072
73 | GCCCAGCAAUAUUACGAGUC | -0.477 ± 0.039 | -0.126 ± 0.059
74 | GAAGAGCAAUAUUACGCCUU | -2.52 ± 0.37 | -1.55 ± 0.33
75 | UGAAAGCAAUAUUACGCAAA | -2.12 ± 0.11 | -0.812 ± 0.11
76 | AAAUAGCAAUAUUACGUAAG | -1.37 ± 0.078 | -0.721 ± 0.096
77 | AGCUAGCAAUAUUACGAGCA | -1.16 ± 0.21 | 0.177 ± 0.17
